Measurements taken from US20240158497A1 (published 2024).

T1: human GP130 extracellular domain expressed with a C-terminal mouse IgG2a Fc tag (hGP130-mFc) (human)
T1 construct: also called dimeric human GP130
T1 chain: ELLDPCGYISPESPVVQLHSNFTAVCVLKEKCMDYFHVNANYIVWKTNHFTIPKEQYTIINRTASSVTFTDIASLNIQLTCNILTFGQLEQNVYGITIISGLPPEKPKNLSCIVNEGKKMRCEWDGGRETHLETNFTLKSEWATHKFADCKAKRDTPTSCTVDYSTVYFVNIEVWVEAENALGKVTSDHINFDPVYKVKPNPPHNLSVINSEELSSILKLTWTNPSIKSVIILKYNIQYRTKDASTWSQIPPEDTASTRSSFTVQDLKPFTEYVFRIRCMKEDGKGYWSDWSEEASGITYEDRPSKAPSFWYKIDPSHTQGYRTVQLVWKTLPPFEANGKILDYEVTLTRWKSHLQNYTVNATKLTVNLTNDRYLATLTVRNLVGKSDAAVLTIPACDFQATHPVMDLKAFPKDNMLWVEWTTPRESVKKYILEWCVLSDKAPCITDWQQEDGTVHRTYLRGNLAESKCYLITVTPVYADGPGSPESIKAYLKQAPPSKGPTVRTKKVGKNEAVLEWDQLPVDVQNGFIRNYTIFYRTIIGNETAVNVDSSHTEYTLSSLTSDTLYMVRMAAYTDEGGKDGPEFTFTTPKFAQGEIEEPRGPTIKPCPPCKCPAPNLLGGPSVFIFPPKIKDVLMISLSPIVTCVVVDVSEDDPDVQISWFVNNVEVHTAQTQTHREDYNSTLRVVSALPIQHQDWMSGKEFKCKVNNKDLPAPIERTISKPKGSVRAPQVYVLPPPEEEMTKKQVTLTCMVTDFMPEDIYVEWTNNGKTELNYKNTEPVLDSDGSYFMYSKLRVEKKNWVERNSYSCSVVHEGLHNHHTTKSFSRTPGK

T2: Macaca fascicularis GP130 extracellular domain expressed with a C-terminal myc-myc-hexahistidine tag (Macaca fascicularis, UniProt P40189 23-619 (human entry))
T2 construct: Monomeric reagent; also called mfGP130-mmH; mfGP130-MMH
T2 chain: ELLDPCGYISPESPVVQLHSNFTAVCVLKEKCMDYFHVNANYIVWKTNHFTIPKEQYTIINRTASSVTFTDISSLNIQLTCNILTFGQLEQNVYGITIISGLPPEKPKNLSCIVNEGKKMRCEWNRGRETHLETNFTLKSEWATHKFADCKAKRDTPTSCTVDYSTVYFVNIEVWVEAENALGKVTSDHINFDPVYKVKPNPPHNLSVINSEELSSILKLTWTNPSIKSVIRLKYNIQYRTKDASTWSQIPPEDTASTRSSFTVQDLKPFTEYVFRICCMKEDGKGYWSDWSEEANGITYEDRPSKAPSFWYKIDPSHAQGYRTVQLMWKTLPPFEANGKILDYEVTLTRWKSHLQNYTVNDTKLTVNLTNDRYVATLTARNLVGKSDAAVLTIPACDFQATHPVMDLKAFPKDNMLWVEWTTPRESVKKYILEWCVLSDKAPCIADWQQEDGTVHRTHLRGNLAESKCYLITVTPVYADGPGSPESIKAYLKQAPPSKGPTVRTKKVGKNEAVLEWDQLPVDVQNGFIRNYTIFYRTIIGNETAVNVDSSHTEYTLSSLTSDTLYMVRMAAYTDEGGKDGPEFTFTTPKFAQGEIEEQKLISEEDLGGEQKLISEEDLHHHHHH


Experiments:
[1] = biological target: T3, mouse GP130 extracellular domain expressed with a C-terminal myc-myc-hexahistidine tag (mGP130-mmH) (mouse, UniProt Q00560 23-617); test: SPR Biacore, mAb captured via anti-hFc, 37 C
T3 construct: Monomeric; the entry includes the myc-myc-His tag
Method: (§1) Equilibrium dissociation constant (KD) for different GP130 reagents binding to purified anti-GP130 monoclonal antibodies were determined using a real-time surface plasmon resonance based Biacore 4000 biosensor. All binding studies were performed in 10 mM HEPES, 150 mM NaCl, 3 mM EDTA, and 0.05% v/v Surfactant Tween-20, pH 7.4 (HBS-ET) running buffer at 25° C. and 37° C. The Biacore sensor surface was first derivatized by amine coupling with a monoclonal mouse anti-human Fc antibody (GE, #BR-1008-39) to capture anti-GP130 monoclonal antibodies. […] Reagents tagged with “mmH” are monomeric, whereas reagents tagged with “mFc” are dimeric. Thus, for example, “hGP130-mmH” is also referred to as “monomeric human GP130,” and “hGP130-mFc” is also referred to as “dimeric human GP130.”
(§2) The association rate (k a) and dissociation rate (kd) were determined by fitting the real-time binding sensorgrams to a 1:1 binding model with mass transport limitation using Scrubber 2.0c curve-fitting software. Binding dissociation equilibrium constant (KD) and dissociative half-life (t ½) were calculated from the kinetic rates as: […]

[2] = biological target: T4, rat GP130 extracellular domain expressed with a C-terminal myc-myc-hexahistidine tag (rGP130-mmH) (rat, UniProt P40190 23-618); test: SPR Biacore, mAb captured via anti-hFc, 37 C
T4 construct: Monomeric; the entry includes the myc-myc-His tag
Method: as §1, §2

[3] = biological target: T1, human GP130 extracellular domain …; test: SPR Biacore, mAb captured via anti-hFc, 37 C
Method: as §1, §2

[4] = biological target: T3, mouse GP130 extracellular domain …; test: SPR Biacore, mAb captured via anti-hFc, 25 C
Method: as §1, §2

[5] = biological target: T4, rat GP130 extracellular domain …; test: SPR Biacore, mAb captured via anti-hFc, 25 C
Method: as §1, §2

[6] = biological target: T1, human GP130 extracellular domain …; test: SPR Biacore, mAb captured via anti-hFc, 25 C
Method: as §1, §2

[7] = biological target: T5, human GP130 delta D1-D3 with C-terminal myc-myc hexahistidine tag (human, UniProt P40189 329-619); test: Luminex, antigen captured on anti-myc beads
T5 construct: used as CHO supernatant; also called human GP130 delta D1-D3-MMH; GP130 Delta D1-D3 extracellular domain
Method: Aliquots of microspheres with immobilized anti-myc monoclonal antibodies, prepared as described above, were added individually to 1 mL of the each of these protein supernatants and to 500 uL of purified GP130 protein. The microspheres were gently mixed, incubated for two hours at 25° C., washed twice with 1 mL of DBPS, centrifuged to remove the supernatant and finally resuspended in 1 mL of DPBS buffer. Forty eight μL of anti-myc IgG coupled microspheres from individual reactions with full length human GP130 and with each of the human GP130 domain proteins were withdrawn and mixed together in 3.6 mL of PBS+20 mg/mL BSA+0.05% sodium azide (blocking buffer).
From this mixed pool, 75 μL of microspheres were plated per well on a 96 well filter plate (Millipore, Cat. No: MSBVN1250) and mixed with 25 μL of individual anti-human GP130 monoclonal antibodies (0.5 or 5 μg/mL), incubated for two hours at 25° C. and then washed twice with 200 μL of DPBS with 0.05% Tween 20 (washing buffer). To detect and quantify the amounts of bound anti-GP130 antibody levels to individual microspheres, either 100 μL of 2.5 μg/mL R-Phycoerythrin conjugated goat F(ab′)2 anti-human kappa (Southern Biotech, Cat #2063-09) in blocking buffer, was added and incubated for 30 minutes at 25° C. After 30 minutes, the samples were washed twice with 200 μL of washing buffer and resuspended in 150 μL of wash buffer. The Median Fluorescence intensity (MFI) of the microspheres was measured in a Luminex Analyzer.

[8] = biological target: T6, human GP130 extracellular domain expressed with a C-terminal myc-myc-hexahistidine tag (human, UniProt P40189 23-619); test: SPR (Biacore 4000), mAb captured on anti-human Fc, 37 C
T6 construct: Monomeric reagent; also called hGP130-mmH; hGP130-MMH
Method: as §1, §2

[9] = biological target: T2, Macaca fascicularis GP130 extracellular …; test: as above
Method: as §1, §2

[10] = biological target: T2, Macaca fascicularis GP130 extracellular …; test: SPR (Biacore 4000), mAb captured on anti-human Fc, 25 C
Method: as §1, §2

| 100 nM Ag Bound (RU) [1] | 100 nM Ag Bound (RU) [2] | 100 nM Ag Bound (RU) [3] | Kd [3] | koff [3] | kon [3] | t½ [3] | 100 nM Ag Bound (RU) [4] | binding result [4] | 100 nM Ag Bound (RU) [5] | binding result [5] | 100 nM Ag Bound (RU) [6] | Kd [6] | koff [6] | kon [6] | t½ [6] | Binder | also measured |
| --- | --- | --- | --- | --- | --- | --- | --- | --- | --- | --- | --- | --- | --- | --- | --- | --- | --- |
| 0 RU | 0 RU | 224 RU | 0.56 nM | 0.000325 s⁻¹ | 580000 M⁻¹ s⁻¹ | 36 min | 0 RU | no binding (tested: 100 nM) | 0 RU | no binding (tested: 100 nM) | 184 RU | 0.468 nM | 0.000208 s⁻¹ | 444000 M⁻¹ s⁻¹ | 56 min | MAb16623 (antibody, V domains shown, captured through anti-human Fc) VH: EVQLVESGGGLVQPGGSLRLSCAASGLTFSSYEMNWVRQAPGKGLEWVSHISSAGSTKYYADSVKGRFTISRDNAKNSLFLQMNSLRAEDTAIYYCAGYNYAYYYFGVDVWGQGTTVTVSS VL: not shown | – |
| 1 RU | 1 RU | 201 RU | 1.29 nM | 0.000825 s⁻¹ | 639000 M⁻¹ s⁻¹ | 14 min | 1 RU | no binding (tested: 100 nM) | 0 RU | no binding (tested: 100 nM) | 164 RU | 0.615 nM | 0.000306 s⁻¹ | 497000 M⁻¹ s⁻¹ | 38 min | MAb16622 (antibody, V domains shown, captured through anti-human Fc) VH: EVQLVESGGGVVRPGGSLRLSCTASGFTFDDYGMSWVRQAPGKGLEWVSGINWNGGRTEYADAVKGRFIISRDNAKNSLYLQMNSLRAEDTALYFCARTELRWDYWGQGTLVTVSS VL: not shown | – |
| 0 RU | 0 RU | 85 RU | 9.56 nM | 0.00172 s⁻¹ | 180000 M⁻¹ s⁻¹ | 7 min | 1 RU | no binding (tested: 100 nM) | 0 RU | no binding (tested: 100 nM) | 83 RU | 4.47 nM | 0.000383 s⁻¹ | 85700 M⁻¹ s⁻¹ | 30 min | MAb16614 (antibody, V domains shown, captured through anti-human Fc) VH: QVQLVESGGGVVQPGGSLRLSCAASGFTFSTYDIHWVRQAPGKGLEWVAVISFDGSNRNYGDSVKGRFTISRDNSDNTLFLEMNNLRFEDTAVYYCAKEGYGVDFQHWGQGTLVTVSS VL: not shown | – |
| – | – | – | – | – | – | – | – | – | – | – | – | – | – | – | – | MAb16680 (antibody, V domains shown, hIgG4 isotype control used) VH: QVQLQQSGPGQMKSSQTLTLTCAISGDSVSSNSAIWYWIRQSPSRGLEWLGRTKFRSKWYNDFALSMKSRITINPDTSKNQFSLHLNSVTPEDTAVYYCARYKWELYFDYWGQGTLVTVSS VL: not shown | Luminex MFI signal [7]: 18700 MFI |
| 0 RU | 1 RU | – | – | – | – | – | 0 RU | – | 2 RU | no binding (tested: 100 nM) | – | – | – | – | – | MAb16680 (antibody, V domains shown, captured through anti-human Fc) VH: QVQLQQSGPGQMKSSQTLTLTCAISGDSVSSNSAIWYWIRQSPSRGLEWLGRTKFRSKWYNDFALSMKSRITINPDTSKNQFSLHLNSVTPEDTAVYYCARYKWELYFDYWGQGTLVTVSS VL: not shown | binding result [1]: no binding (tested: 100 nM) |
| – | – | – | – | – | – | – | – | – | – | – | – | – | – | – | – | MAb16683 (antibody, V domains shown) VH: QVQLVESGGGLVKPGGSLRLSCAASGFTFSDYYMTWIRQTPGKGLDWVSYISSSGTNKYNADSVKGRFTISRDNAKNSLYLQMNSLRAEDTAVYYCVRDPPWGMDVWGQGTTVTVSS VL: not shown | 100 nM Ag Bound [8]: 38 RU; Kd [8]: 117 nM; koff [8]: 0.0125 s⁻¹; kon [8]: 107000 M⁻¹ s⁻¹; t½ [8]: 0.9 min; 100 nM Ag Bound [9]: 43 RU; Kd [9]: 125 nM; koff [9]: 0.0121 s⁻¹; kon [9]: 96500 M⁻¹ s⁻¹; t½ [9]: 1 min; 100 nM Ag Bound [10]: 59 RU; Kd [10]: 37.4 nM; koff [10]: 0.00246 s⁻¹; kon [10]: 65700 M⁻¹ s⁻¹; t½ [10]: 5 min |
| 0 RU | 2 RU | 236 RU | 0.674 nM | 0.000934 s⁻¹ | 1.39e+06 M⁻¹ s⁻¹ | 12 min | 1 RU | no binding (tested: 100 nM) | 6 RU | no binding (tested: 100 nM) | 202 RU | 0.236 nM | 0.000279 s⁻¹ | 1.19e+06 M⁻¹ s⁻¹ | 41 min | MAb16618 (antibody, V domains shown, captured through anti-human Fc) VH: QVQLQESGPGLVKPSETLSLTCTVSGGSISNYYWTWIRQPPGKGLEWIGHISNSGTTNYNPSLKSRVTISVDTSKNQFSLKLTSVTAADTAVYYCARLPLGIAAVDTDYYYYFGMDVWGQGTTVTVSS VL: not shown | – |
